Data reported in patent publication US20220170038A1 (COMMONWEALTH SCIENTIFIC INDUSTRIAL RESEARCH ORGANISATION, published 2022).

B1: MTP-FAγ51::NifS::HA fusion polypeptide encoded by SN31, unprocessed form (enzyme)
chain: MMAMAVFRREGRRLLPSIAARPIAAIRSPLSSDQEEGLLGVRSISTQVVRNRGGMKQVYLDNNATTRLDPMVLEAMMPFLTDFYGNPSSIHDFGIPAQAALERAHQQAAALLGAEYPSEIIFTSCATEATATAIASAIALLPERREIITSVVEHPATLAACEHLERQGYRIHRIAVDSEGALDMAQFRAALSPRVALVSVMWANNETGVLFPIGEMAELAHEQGALFHCDAVQVVGKIPIAVGQTRIDMLSCSAHKFHGPKGVGCLYLRRGTRFRPLLRGGHQEYGRRAGTENICGIVGMGAACELANIHLPGMTHIGQLRNRLEHRLLASVPSVMVMGGGQPRVPGTVNLAFEFIEGEAILLLLNQAGIAASSGSACTSGSLEPSHVMRAMNIPYTAAHGTIRFSLSRYTREKEIDYVVATLPPIIDRLRALSPYWQNGKPRPADAVFTPVYGGGYPYDVPDYA
notes: Present in the soluble input sample but not detected in the eluate; also called unprocessed NifS; unprocessed MTP-FAγ51::NifS
B2: scar9::GG::NifU::TS (MPP-processed product of the MTP-FAγ51::NifU::TwinStrep fusion polypeptide encoded by SN166) (other)
chain: not shown
notes: Expressed in N. benthamiana leaves with mitochondrial targeting; N-terminal analysis and the tryptic peptide ISTQVVR confirmed cleavage at the intended MPP site; SEC indicated a heterotetramer of 2 NifS and 2 NifU; also called scar9-NifU::TS; scar9-NifU-TwinStrep
B3: scar9::NifS::TS (MPP-processed product of the MTP-FAγ51::NifS::TwinStrep fusion polypeptide encoded by SN231) (enzyme)
chain: not shown
notes: Bait in the reverse pull-down; the text names scar9::NifS::TS in the eluate; also called MTP-FAγ51::NifS::TS

Legend:
[1] = molecular target: B2; test: StrepTactinXT pull-down of NifU::TS from N. benthamiana leaves co-infiltrated with SN31 and SN166, anaerobic non-denaturing extraction; anti-HA Western blot of the eluate
[2] = molecular target: T1, scar9::GG::NifS::HA (MPP-processed product of the MTP-FAγ51::NifS::HA fusion polypeptide encoded by SN31) (Klebsiella oxytoca, UniProt P05344 1-397); test: StrepTactinXT pull-down of NifU::TS from leaves co-infiltrated with SN31 and SN166, first purification; anti-Strep and anti-HA Western blots
T1 construct: This processed form was the one found in the eluate with NifU::TS; also called scar9-NifS::HA; processed NifS
T1 sequence: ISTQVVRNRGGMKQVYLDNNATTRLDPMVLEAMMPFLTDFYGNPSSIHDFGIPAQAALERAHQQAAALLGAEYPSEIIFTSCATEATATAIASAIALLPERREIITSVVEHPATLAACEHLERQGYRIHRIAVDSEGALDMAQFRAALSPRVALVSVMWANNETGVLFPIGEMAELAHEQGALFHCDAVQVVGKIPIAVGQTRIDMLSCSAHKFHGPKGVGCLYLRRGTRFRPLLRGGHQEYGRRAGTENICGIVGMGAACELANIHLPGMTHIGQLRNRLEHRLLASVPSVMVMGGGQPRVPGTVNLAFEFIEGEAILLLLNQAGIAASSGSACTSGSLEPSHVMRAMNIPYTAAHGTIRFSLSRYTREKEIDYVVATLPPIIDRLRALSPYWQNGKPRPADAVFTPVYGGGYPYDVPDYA

[3] = molecular target: T2, scar9::GG::NifU::HA (MPP-processed product of the MTP-FAγ51::NifU::HA fusion polypeptide encoded by SN32) (Klebsiella oxytoca, UniProt P05343 1-274); test: StrepTactinXT pull-down of NifS::TS from leaves co-infiltrated with SN231 and SN32; anti-Strep and anti-HA Western blots
T2 construct: also called scar9::NifU::HA; processed NifU
T2 sequence: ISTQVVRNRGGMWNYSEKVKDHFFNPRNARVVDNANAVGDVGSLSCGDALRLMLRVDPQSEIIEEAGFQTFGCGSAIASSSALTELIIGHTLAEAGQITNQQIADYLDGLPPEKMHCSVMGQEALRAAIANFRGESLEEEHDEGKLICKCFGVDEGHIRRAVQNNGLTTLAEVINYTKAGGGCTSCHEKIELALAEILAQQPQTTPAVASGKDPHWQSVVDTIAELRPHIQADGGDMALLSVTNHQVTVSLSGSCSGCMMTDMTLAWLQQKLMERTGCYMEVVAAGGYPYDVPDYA

B1
binding result [1]: no binding

B2
binding result [2]: binds

B3
binding result [3]: binds
